± gives the standard deviation of the averaged measurements.
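Note: ATP exposure 15 min at 22 °C before imaging.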

For the data set, the system named is ATP. Nature of the data set: switch fluorescence ratio, 500 uM ATP over buffer (Cy3 cluster intensity, sum of 5 cycles each) (fold (ratio)); higher = stronger signal-on switching upon ATP binding; sequences stand for … in TCGTCGGCAGCGTCAGATGTGTATAAGAGACAGTTTTTTTTTTTTTTTTTTTTTTTTT…TC. The conditions noted are these: aptamer strand: ATP DNA aptamer (quencher-CACCTGGGGGAGTATTGCGGAGGAAGG + anchor), 100 nM annealed; ATP concentration: 500 uM. Summed up:
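Clusters carrying Cy3-labelled switching strands on a modified Illumina MiSeq flow-cell were annealed to 100 nM quencher-labelled ATP aptamer and imaged in selection buffer. They were imaged again after 15 min with 500 uM ATP at 22 °C, over five buffer/ATP cycles with NaOH stripping and re-annealing in between. For each cluster, the fluorescence ratio is the summed Cy3 intensity of the target cycles divided by that of the buffer cycles, averaged per switch-domain sequence. Clusters outside 100-1000 RFU were left out.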
For GTAGAAGGGT, the switch fluorescence ratio was 1.01 ± 0.016.

For the sequence TTTGTCGCCG, the switch fluorescence ratio stood at 1.01 ± 0.029.

In the case of TCCCCAATTT, the switch fluorescence ratio was 1.13 ± 0.12.

In the case of GGTTATGAGG, the switch fluorescence ratio was 0.994 ± 0.031.

GGGGGCCTGT: the switch fluorescence ratio was found to be 1.01 ± 0.035.

CGTGGGCGTG: the switch fluorescence ratio came to 0.9797 ± 0.0013.

As to GGGGTGTGCG, the switch fluorescence ratio was 0.9883 ± 0.0051.

In the case of CAAGGTTATA, the switch fluorescence ratio was 1 ± 0.022.

With AGTGTATCCC, the switch fluorescence ratio amounted to 1.01 ± 0.034.

As to AAAGTGTGCC, the switch fluorescence ratio stood at 0.962 ± 0.013.

For TGGGTTCTGA, the switch fluorescence ratio was 0.98 ± 0.011.

Turning to GATAGATAGG, the switch fluorescence ratio came to 0.967 ± 0.055.

For the sequence AGGTGTTATT, the switch fluorescence ratio amounted to 1.005 ± 0.0074.

Turning to TTGAGGTTGG, the switch fluorescence ratio is 1 ± 0.026.

As to TTGGGTGATC, the switch fluorescence ratio stood at 1.01 ± 0.049.

In the case of CATTTTCCGG, the switch fluorescence ratio was 1.11 ± 0.16.

With TCGTTTACAC, the switch fluorescence ratio came to 1.01 ± 0.033.

For the sequence TACAACTCTC, the switch fluorescence ratio was 0.963 ± 0.077.

Take TTCTTACTTT: the switch fluorescence ratio amounted to 1.48 ± 0.64.

TGGCATCTGT: the switch fluorescence ratio came to 0.972 ± 0.03.

As to TTAATTGACA, the switch fluorescence ratio was found to be 1.064 ± 0.0092.

For the sequence TAACATGGCC, the switch fluorescence ratio was 1 ± 0.022.

In the case of AGGCTTTCTC, the switch fluorescence ratio was found to be 1.14 ± 0.11.

On to GCAGTTAGGG, for which the switch fluorescence ratio amounted to 0.995 ± 0.079.

As for TATGTATGC, the switch fluorescence ratio turned out to be 1.03 ± 0.014.

Turning to AGGCGGGGCG, the switch fluorescence ratio was 1.02 ± 0.022.

In the case of CCAATTGCAT, the switch fluorescence ratio amounted to 1.12 ± 0.021.

On to ATACTCAGTG, for which the switch fluorescence ratio turned out to be 1.069 ± 0.0084.

For ACGATCCACG, the switch fluorescence ratio was 1.04 ± 0.045.

In the case of CGGGGCGG, the switch fluorescence ratio came to 0.952 ± 0.057.

As for TTTGTACCGT, the switch fluorescence ratio is 1.06 ± 0.1.

Regarding CATGACCGAA, the switch fluorescence ratio is 1.014 ± 0.0039.

Consider TATATTTACC, for which the switch fluorescence ratio turned out to be 1.04 ± 0.044.

With TTGTTTTGTG, the switch fluorescence ratio came to 0.978 ± 0.013.

In the case of ATGCTGCGGG, the switch fluorescence ratio is 1.06 ± 0.068.

Consider CCAGCATAAT, for which the switch fluorescence ratio was determined as 1.41 ± 0.05.

As to CAGGATAGGC, the switch fluorescence ratio turned out to be 1.003 ± 0.0044.

Take ATGTTCTCGT: the switch fluorescence ratio came to 0.995 ± 0.021.

As to GGCTTTTTGG, the switch fluorescence ratio was 0.99 ± 0.02.

With GGGACCAATT, the switch fluorescence ratio was 1 ± 0.022.

With TCGAATGTGC, the switch fluorescence ratio stood at 0.989 ± 0.022.

On to TGGGTTGGAT, for which the switch fluorescence ratio is 0.99 ± 0.013.

Consider CCGTTATTCT, for which the switch fluorescence ratio was 1.35 ± 0.27.

As to GTAATAAGGA, the switch fluorescence ratio was 0.994 ± 0.029.

Consider TGGGTGTGTT, for which the switch fluorescence ratio is 0.995 ± 0.028.

On to TGTGTTCCCT, for which the switch fluorescence ratio came to 0.982 ± 0.028.

Regarding GATGATCTAT, the switch fluorescence ratio came out at 1.01 ± 0.035.

For GGGATAGAGG, the switch fluorescence ratio came to 0.999 ± 0.051.

GGGGGGTATT: the switch fluorescence ratio stood at 0.987 ± 0.037.

Take ATTGCGGGTA: the switch fluorescence ratio stood at 0.992 ± 0.042.

In the case of GTGATTGAGT, the switch fluorescence ratio was determined as 0.9707 ± 0.0089.

Regarding CATTTAGGTT, the switch fluorescence ratio was determined as 0.982 ± 0.019.

Turning to TTCCCTTTGG, the switch fluorescence ratio was determined as 1.01 ± 0.041.

CATTCTGCGG: the switch fluorescence ratio came to 1.049 ± 0.002.

GGGGGGCATT: the switch fluorescence ratio was 0.99 ± 0.033.

Consider GATAATTGTC, for which the switch fluorescence ratio is 0.951 ± 0.048.

For the sequence TAGGGCGGGT, the switch fluorescence ratio came to 0.972 ± 0.039.

As for CGGATGGCC, the switch fluorescence ratio came to 0.965 ± 0.036.

In the case of GGGAAGATTA, the switch fluorescence ratio was 0.966 ± 0.031.

Turning to TTCATGATTG, the switch fluorescence ratio amounted to 0.999 ± 0.011.

As for TAAACTTGAC, the switch fluorescence ratio was found to be 1.16 ± 0.1.

On to GAATTAATTT, for which the switch fluorescence ratio is 1 ± 0.04.

In the case of CGGGGCTTGT, the switch fluorescence ratio worked out at 0.985 ± 0.013.

As to ATTCTCCGGG, the switch fluorescence ratio was 1.18 ± 0.065.

As for CCGATTTATA, the switch fluorescence ratio worked out at 1.013 ± 0.0052.

With GCTGGGGCCC, the switch fluorescence ratio is 0.9977 ± 0.005.

Take TATCTAAAGT: the switch fluorescence ratio is 1.01 ± 0.029.

Values taken from the supplement of paper PMC10126150.
